One block for each molecule: values may come before it.
How the values were obtained:
[1] = system: caspase-2; caspase-3/7; caspase-6; caspase-8; and caspase-9; assay: Caspase activity with AFC-labeled peptides in lysates of STS-treated astrocytes; assay type: cell-based; conditions: for caspase activity (caspase-2, -3/7, -6, -8, -9): STS (500 nm) 24 hours
Protocol: The following experiment was performed to determine whether Bcl2L12 inhibits caspase activation. Briefly, a caspase activation profile was generated using fluorochrome-labeled peptides resembling the ideal cleavage sites for caspases-2 (VDVAF; SEQ ID NO:29), caspases-3/7 (DEVD; SEQ ID NO:27), caspase-6 (VEID; SEQ ID NO:31), caspase-8 (IETD; SEQ ID NO:30), and caspase-9 (LEHD; SEQ ID NO:28). Two confluent 15 cm dishes of astrocytes (pBabe or Bcl2L12-V5 transfected) were left untreated or treated with STS (500 nm) for 24 hours and lysed in a lysis buffer containing 1% Trition X-100. The lysed cells were then spun for 15 minutes at 14,000 rpm at 4° C. to obtain a postnuclear supernatant. The supernatants (standardized to 20 mg of protein) were incubated with 40 μM of AFC labeled peptide substrate for 1 hour at 37° C. The samples were read in a fluorescence plate reader, and the specific RFUs were calculated. In the presence of active caspases, the fluorogenic group AFC is released from the peptide, and its fluorescence can be quantified using a plate reader.
The mechanism of action of EGFR*, in contrast to Bcl2L12, stems from the activation of upstream survival pathways that converge to inhibit cytochrome c redistribution and subsequent caspase-9 processing (FIG. 8B), as reported previously (Nagane et al., Proc Natl Acad Sci USA 95:5724-9(1998)). In addition, the ability of Bcl2L12 polypeptide to inhibit effector caspase function is reflected in decreased levels of the caspase-9 p37 as a result of caspase-3-mediated cleavage intermediate (FIG. 8A, 16 hours; Fujita et al., Cell Death Differ. 8:335-44 (2001)). […] As a consequence of a caspase-3-mediated feedback mechanism (Fujita et al., Cell Death Differ. 8:335-44 (2001); Slee et al., J Cell Biol. 144, 281-92 (1999)), caspase-9 processing in later phases of apoptosis progression was enhanced (FIG. 8C, 16 hours). […] Caspase activities were determined fluorometrically using a fluorescence plate reader. […]

Apaf-1 polypeptide = biological target: T1, Apaf-1 polypeptide (Homo sapiens, UniProt O14727); assay: Co-immunoprecipitation of endogenous Apaf-1 in 293T cells; assay type: binding; conditions: anti-V5 immunoprecipitation from 293T cells
T1 construct: endogenous in cells; host or cells: 293T
T1 sequence (O14727 1-1248): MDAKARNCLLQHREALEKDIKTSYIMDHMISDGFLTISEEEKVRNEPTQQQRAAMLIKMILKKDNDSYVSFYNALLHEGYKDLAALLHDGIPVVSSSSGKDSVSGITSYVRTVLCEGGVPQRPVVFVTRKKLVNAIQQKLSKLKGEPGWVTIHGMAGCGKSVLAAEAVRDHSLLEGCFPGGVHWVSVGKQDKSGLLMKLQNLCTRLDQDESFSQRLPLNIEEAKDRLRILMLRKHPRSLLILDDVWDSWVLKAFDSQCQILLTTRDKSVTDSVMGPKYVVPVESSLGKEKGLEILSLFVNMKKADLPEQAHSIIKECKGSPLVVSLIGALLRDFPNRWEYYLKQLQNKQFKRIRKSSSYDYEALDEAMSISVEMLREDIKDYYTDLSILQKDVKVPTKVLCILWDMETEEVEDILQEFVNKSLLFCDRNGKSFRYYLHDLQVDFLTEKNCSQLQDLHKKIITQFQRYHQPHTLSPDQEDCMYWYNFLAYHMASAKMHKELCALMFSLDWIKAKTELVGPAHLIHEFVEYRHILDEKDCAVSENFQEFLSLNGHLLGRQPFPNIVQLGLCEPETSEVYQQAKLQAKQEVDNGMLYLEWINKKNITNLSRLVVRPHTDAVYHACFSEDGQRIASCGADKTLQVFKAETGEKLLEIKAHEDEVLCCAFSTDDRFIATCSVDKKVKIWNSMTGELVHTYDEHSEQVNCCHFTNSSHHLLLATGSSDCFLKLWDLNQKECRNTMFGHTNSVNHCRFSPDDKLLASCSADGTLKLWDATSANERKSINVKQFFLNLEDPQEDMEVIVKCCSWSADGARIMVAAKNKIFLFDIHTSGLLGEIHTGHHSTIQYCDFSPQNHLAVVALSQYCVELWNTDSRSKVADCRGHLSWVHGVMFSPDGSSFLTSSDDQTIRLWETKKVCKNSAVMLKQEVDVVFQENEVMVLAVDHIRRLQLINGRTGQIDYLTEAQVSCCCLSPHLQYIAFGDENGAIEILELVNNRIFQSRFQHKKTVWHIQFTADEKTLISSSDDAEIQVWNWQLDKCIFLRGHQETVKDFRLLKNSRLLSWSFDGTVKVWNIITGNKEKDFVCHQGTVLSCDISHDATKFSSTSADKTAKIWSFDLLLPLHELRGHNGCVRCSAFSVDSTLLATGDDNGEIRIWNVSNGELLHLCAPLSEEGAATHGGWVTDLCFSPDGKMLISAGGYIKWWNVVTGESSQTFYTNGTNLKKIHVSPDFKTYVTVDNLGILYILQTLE
Protocol: To confirm this interaction, 293T cells were used to test the physical interaction between Apaf-1 and Bcl2L12 polypeptides in vivo. […] To test the association between Apaf-1 and Bcl2L12 polypeptides in vivo, Bcl2L12-V5 polypeptides were expressed in 293T cells and immunoprecipitated with an anti-V5 antibody. The amount of co-immunoprecipitated endogenous Apaf-1 polypeptide then was determined by Western blot analysis.
To assess whether the BH2 domain is necessary for Apaf-1 binding, Bcl2L12-V5-ΔBH2 polypeptides were immunoprecipitated from 293T cells, and co-immunoprecipitated Apaf-1 was quantified as described.

- caspase activity (caspase-2, -3/7, -6, -8, -9) [1]: even more pronounced inhibition
B1: Bcl2L12-V5-ΔBH2: V5 tagged mutant lacking amino acid residues 311-334 (BH2 domain) of human Bcl2L12; sequence 1-310 (protein)
chain: MGRPAGLFPPLCPFLGFRPEACWERHMQIERAPSVPPFLRWAGYRPGPVRRRGKVELIKFVRVQWRRPQVEWRRRRWGPGPGASMAGSEELGLREDTLRVLAAFLRRGEAAGSPVPTPPRSPAQEEPTDFLSRLRRCLPCSLGRGAAPSESPRPCSLPIRPCYGLEPGPATPDFYALVAQRLEQLVQEQLKSPPSPELQGPPSTEKEAILRRLVALLEEEAEVINQKLASDPALRSKLVRLSSDSFARLVELFCSRDDSSRPSRACPGPPPPSPEPLARLALAMELSRRVAGLGGTLAGLSVEHVHSFTP
modifications: left off: small tags and cut ends
- association with Apaf-1 polypeptide (Apaf-1 polypeptide): bound comparable levels of Apaf-1 polypeptide

- caspase activity (caspase-2, -3/7, -6, -8, -9) [1]: significantly impaired
- association with Apaf-1 polypeptide (Apaf-1 polypeptide): found to be associated
B2: Bcl2L12-V5: Bcl2L12 polypeptide having the V5 epitope tag, ectopically expressed from pBabe-Bcl2L12-V5 vector; human amino acid sequence 1-334 (protein)
chain: MGRPAGLFPPLCPFLGFRPEACWERHMQIERAPSVPPFLRWAGYRPGPVRRRGKVELIKFVRVQWRRPQVEWRRRRWGPGPGASMAGSEELGLREDTLRVLAAFLRRGEAAGSPVPTPPRSPAQEEPTDFLSRLRRCLPCSLGRGAAPSESPRPCSLPIRPCYGLEPGPATPDFYALVAQRLEQLVQEQLKSPPSPELQGPPSTEKEAILRRLVALLEEEAEVINQKLASDPALRSKLVRLSSDSFARLVELFCSRDDSSRPSRACPGPPPPSPEPLARLALAMELSRRVAGLGGTLAGLSVEHVHSFTPWIQAHGGWEGILAVSPVDLNLPLD
modifications: left off: small tags and cut ends
- DEVDase activity ([1]; 0.5 μM STS, pBabe about 8500 RFUs): about 3500 RFUs

Source: patent US7595158B2, “Bcl2L12 polypeptide activators and inhibitors” (Dana-Farber Cancer Institute, Inc., priority 2003, dated 2009)
